Results on 1 molecule are retold here after patent publication US20020058323A1, “Monkey urotensin II” (priority 2000, published 2002).

In the assay the target is T1, Macaca fascicularis Urotensin II receptor (Macaca mulatta, UniProt Q8HYC3).
T1 construct: expressed in transfected cells
T1 sequence (Q8HYC3 1-389): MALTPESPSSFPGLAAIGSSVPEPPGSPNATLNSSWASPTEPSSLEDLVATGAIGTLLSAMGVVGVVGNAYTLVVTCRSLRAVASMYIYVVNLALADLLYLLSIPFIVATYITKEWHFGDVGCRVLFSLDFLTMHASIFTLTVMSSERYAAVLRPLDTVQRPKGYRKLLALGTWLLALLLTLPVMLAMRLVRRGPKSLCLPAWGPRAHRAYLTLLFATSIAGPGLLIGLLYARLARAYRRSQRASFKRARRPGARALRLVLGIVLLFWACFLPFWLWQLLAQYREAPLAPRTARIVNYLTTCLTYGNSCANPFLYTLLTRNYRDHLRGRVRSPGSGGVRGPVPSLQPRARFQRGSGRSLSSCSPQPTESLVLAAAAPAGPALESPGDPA
Kind of assay: Radioligand binding with Scatchard plot analysis on a stable HEK 293 cell line transfected with the Urotensin II receptor. The following applies: radiolabeled ligand, single set of binding sites, transfected HEK 293 cells. The source says: 1. A stable cell line was developed from HEK 293 cells transfected with mammalian pCDN vector of the Macaca fascicularis Urotensin II receptor.

In general, Kd refers to the constant that tells how readily two partners part at equilibrium.

B1: Macaca fascicularis Urotensin II: Macaca fascicularis Urotensin II polypeptide of the invention (SEQ ID NO:2, 125 amino acids), ligand of a G-protein coupled receptor (protein)
chain: MYKLASCCLLFIGFLNPLFSLPLLDSGEVSLQLSAPHEDAPLTSEELERASLLQILPEMLLGAERGDSLRKADSSTNIFNPRGNLRKFQDFSGQDPDILLSHLLARIRKPYKKRETPDCFWKYCV
modifications: MACACA FASCICULARIS
Turning to B1, the Kd came out at 0.214 ± 0.065 nM.
